Reference: the PETadex activity labels (doi:10.1128/aem.02773-17)

B1: unnamed (protein)
chain: MNVLTKCKLALGIIAIFFSLPSFAVPCSDCSNGFERGQVPRVDQLESSRGPYSVKTINVSRLARGFGGGTIHYSTESGGQQGIIAVVPGYVSLEGSIKWWGPRLASWGFTVITIDTNTIYDQPDSRASQLSAAIDYVIDKGNDRSSPIYGLVDPNRVGVIGWSMGGGGSLKLATDRKIDAVIPQAPWYLGLSRFSSITSPTMIIACQADVVAPVSVHASRFYNQIPGTTPKAYFEIALGSHFCANTGYPSEDILGRNGVAWMKRFIDKDERYTQFLCGQNFDSSLRVSEYRDNCSYY
B2: unnamed (protein)
chain: MPITARNTLASLLLASSALLLSGTAFAANPPGGDPDPGCQTDCNYQRGPDPTDAYLEAASGPYTVSTIRVSSLVPGFGGGTIHYPTNAGGGKMAGIVVIPGYLSFESSIEWWGPRLASHGFVVMTIDTNTIYDQPSQRRDQIEAALQYLVNQSNSSSSPISGMVDSSRLAAVGWSMGGGGTLQLAADGGIKAAIALAPWNSSINDFNRIQVPTLIFACQLDAIAPVALHASPFYNRIPNTTPKAFFEMTGGDHWCANGGNIYSALLGKYGVSWMKLHLDQDTRYAPFLCGPNHAAQTLISEYRGNCPY

Tests used:
pNPB = test: Proxy for plastic degradation [Relative activity]
PET = test: Proxy for plastic degradation [Released monomer concentration (HPLC/LC-MS) (terephthalic acid)]; conditions: pH 8

Row | Protein | Proxy for plastic degradation (pNPB; pH 3) | Proxy for plastic degradation (pNPB; pH 4) | Proxy for plastic degradation (pNPB; pH 5) | Proxy for plastic degradation (pNPB; pH 6) | Proxy for plastic degradation (pNPB; pH 7, 17 °C) | Proxy for plastic degradation (pNPB; pH 7, 22 °C) | Proxy for plastic degradation (pNPB; pH 7, 28 °C) | Proxy for plastic degradation (pNPB; pH 7, 37 °C) | Proxy for plastic degradation (pNPB; pH 7, 42 °C) | Proxy for plastic degradation (pNPB; pH 7, 55 °C) | Proxy for plastic degradation (pNPB; pH 7, 60 °C) | Proxy for plastic degradation (pNPB; pH 7, 70 °C) | Proxy for plastic degradation (pNPB; pH 7, 80 °C) | Proxy for plastic degradation (pNPB; pH 7, 90 °C) | Proxy for plastic degradation (pNPB; pH 8) | Proxy for plastic degradation (pNPB; pH 9.2) | Proxy for plastic degradation (pNPB; pH 10.2) | Proxy for plastic degradation (PET)
1 | B1 | 0% | 0% | 0% | 11% | 60% | 60% | 62% | 72% | 82% | 100% | 81% | 81% | 55% | 35% | 100% | 76% | 48% | 
2 | B2 | 0% | 0% | 0% | 4% | 63% | 70% | 71% | 77% | 76% | 82% | 100% | 100% | 81% | 82% | 100% | 99% | 90% | 900 µM
